In PMC4243239 (Nature communications, 2014):

T1: B. subtilis FtsZ with a 15-residue recombinant N-terminal T7 epitope tag (B. subtilis, UniProt P17865 1-382)
T1 sequence (looked up): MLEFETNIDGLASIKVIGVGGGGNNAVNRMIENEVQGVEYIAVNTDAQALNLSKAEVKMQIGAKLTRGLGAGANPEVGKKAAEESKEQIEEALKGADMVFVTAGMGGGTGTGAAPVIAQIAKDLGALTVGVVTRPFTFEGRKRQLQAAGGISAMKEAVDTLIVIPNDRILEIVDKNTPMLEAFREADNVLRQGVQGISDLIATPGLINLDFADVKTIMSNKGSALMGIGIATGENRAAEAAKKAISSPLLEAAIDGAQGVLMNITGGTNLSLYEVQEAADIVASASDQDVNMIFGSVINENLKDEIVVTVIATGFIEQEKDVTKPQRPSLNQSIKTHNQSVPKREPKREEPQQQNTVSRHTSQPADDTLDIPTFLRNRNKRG

T2: B. subtilis FtsZ, untagged (B. subtilis, UniProt P17865 1-382)
T2 sequence: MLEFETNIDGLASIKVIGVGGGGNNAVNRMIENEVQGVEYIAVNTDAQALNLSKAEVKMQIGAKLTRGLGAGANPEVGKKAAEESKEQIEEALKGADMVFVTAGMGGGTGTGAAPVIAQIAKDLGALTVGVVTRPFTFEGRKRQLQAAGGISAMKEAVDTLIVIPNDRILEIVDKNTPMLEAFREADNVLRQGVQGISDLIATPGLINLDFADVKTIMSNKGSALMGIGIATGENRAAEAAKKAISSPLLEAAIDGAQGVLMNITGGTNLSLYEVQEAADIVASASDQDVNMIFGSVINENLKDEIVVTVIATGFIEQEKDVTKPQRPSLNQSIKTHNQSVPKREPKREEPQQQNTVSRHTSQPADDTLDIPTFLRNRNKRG


How the values were obtained:
crystal structure = biological target: the molecule itself; assay: crystal structure
[1] = biological target: T1, B. subtilis FtsZ with a 15-residue …; assay: cross-linking
SEC-MALS = biological target: the molecule itself; assay: SEC-MALS
[2] = biological target: T2, B. subtilis FtsZ, untagged; assay: SPR

| Binder | binding result (crystal structure) | stoichiometry N [1] | binding result (SEC-MALS) | Kd [2] |
| --- | --- | --- | --- | --- |
| B. subtilis EzrA cytoplasmic domain lacking the N-terminal 21 residue trans-membrane helix, BsEzrA_(22-562) (domain or fragment, UniProt O34894 22-562, looked up) RKKIYAEIDRLESWKIEILNRSIVEEMSKIKHLKMTGQTEEFFEKWREEWDEIVTAHMPKVEELLYDAEENADKYRFKKANQVLVHIDDLLTAAESSIEKILREISDLVTSEEKSREEIEQVRERYSKSRKNLLAYSHLYGELYDSLEKDLDEIWSGIKQFEEETEGGNYITARKVLLEQDRNLERLQSYIDDVPKLLADCKQTVPGQIAKLKDGYGEMKEKGYKLEHIQLDKELENLSNQLKRAEHVLMTELDIDEASAILQLIDENIQSVYQQLEGEVEAGQSVLSKMPELIIAYDKLKEEKEHTKAETELVKESYRLTAGELGKQQAFEKRLDEIGKLLSSVKDKLDAEHVAYSLLVEEVASIEKQIEEVKKEHAEYRENLQALRKEELQARETLSNLKKTISETARLLKTSNIPGIPSHIQEMLENAHHHIQETVNQLNELPLNMEEAGAHLKQAEDIVNRASRESEELVEQVILIEKIIQFGNRFRSQNHILSEQLKEAERRFYAFDYDDSYEIAAAAVEKAAPGAVEKIKADISA | binds | 1 EzrA:FtsZ |  |  |
| BsEzrA_(22–217), spectrin repeats one and two of B. subtilis EzrA (domain or fragment, UniProt O34894 22-217, looked up) RKKIYAEIDRLESWKIEILNRSIVEEMSKIKHLKMTGQTEEFFEKWREEWDEIVTAHMPKVEELLYDAEENADKYRFKKANQVLVHIDDLLTAAESSIEKILREISDLVTSEEKSREEIEQVRERYSKSRKNLLAYSHLYGELYDSLEKDLDEIWSGIKQFEEETEGGNYITARKVLLEQDRNLERLQSYIDDVPK |  |  | binds | 13.7 ± 1.5 µM |
